Patent publication US20240309050A1

Legend:
[1] = target: gHgL antigen protein of EB virus (EB virus (M81 strain)); assay: BLI (Octet), AMMO1 on protein A sensor, antigen (row label gHgL) in solution 3.125-200 nM, 1:1 fit
[2] = target: gHgL-I53-50 NP self-assembled nanoparticle (EB virus (M81 strain) for the gH and gL parts); assay: BLI (Octet), AMMO1 on protein A sensor, antigen (row label gHgL-I53-50 NP) in solution 3.125-200 nM, 1:1 fit
[3] = target: gHgL-I53-50A1 subunit (EB virus (M81 strain) for the gH and gL parts); assay: BLI (Octet), AMMO1 on protein A sensor, antigen (row label gHgL-I53-50A1) in solution 3.125-200 nM, 1:1 fit

**Q.** Which results are given for neutralizing antibody AMMO1?
**A.** Kd [1]: 0.432 nM; Kd [2]: 0.0339 nM; Kd [3]: 0.242 nM
